T1: Claudin-4 (CLDN4) (human, UniProt O14493 1-209)
T1 construct: whole, on cells; also called CLDN4-GFP; CLDN4-mGFP
T1 sequence (looked up): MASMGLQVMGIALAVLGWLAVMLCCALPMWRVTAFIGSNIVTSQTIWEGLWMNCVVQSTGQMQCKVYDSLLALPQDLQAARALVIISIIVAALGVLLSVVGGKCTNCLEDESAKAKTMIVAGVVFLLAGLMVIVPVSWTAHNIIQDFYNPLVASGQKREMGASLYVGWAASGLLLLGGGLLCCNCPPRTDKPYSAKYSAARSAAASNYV

T2: mouse Claudin-6 (CLDN6) (mouse, UniProt Q9Z262 1-219)
T2 construct: whole, on cells; GFP fusion on engineered HEK293T cells; also called Mouse CLDN6; murine CLDN6
T2 sequence (looked up): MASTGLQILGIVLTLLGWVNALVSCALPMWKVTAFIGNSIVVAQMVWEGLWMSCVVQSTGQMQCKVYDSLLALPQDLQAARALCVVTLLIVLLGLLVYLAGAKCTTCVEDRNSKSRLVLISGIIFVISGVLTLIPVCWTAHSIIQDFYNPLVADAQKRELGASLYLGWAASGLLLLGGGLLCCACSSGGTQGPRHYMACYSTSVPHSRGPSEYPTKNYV

T3: Claudin-9 (CLDN9) (human, UniProt O95484 1-217)
T3 construct: whole, on cells; also called CLDN9-GFP; CLDN9-mGFP
T3 sequence (looked up): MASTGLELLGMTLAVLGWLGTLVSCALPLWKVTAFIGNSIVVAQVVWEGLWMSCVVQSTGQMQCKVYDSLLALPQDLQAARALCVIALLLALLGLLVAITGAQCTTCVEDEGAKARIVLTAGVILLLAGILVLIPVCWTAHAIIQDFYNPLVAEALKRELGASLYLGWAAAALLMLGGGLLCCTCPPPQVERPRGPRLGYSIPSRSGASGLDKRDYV


Legend:
[1] = molecular target: CLDN3/4 (endogenous on LS513 or MCF7 cells); assay: FACS titration of labelled mAb on MCF7 cells (endogenous CLDN3/4+)
[2] = molecular target: human Claudin-6 (CLDN6) (human) (UniProt P56747); assay: FACS titration of labelled mAb on HEK293T-CLDN6-mGFP cells
[3] = molecular target: T1, Claudin-4 (CLDN4); assay: FACS titration of labelled mAb on HEK293T CLDN4-mGFP cells
Description: (§1) CLDN6 antibodies were tested from 0.32 nM to 1000 nM (serial dilution 1:5, 6 points) in a 50 μl volume with 150,000 cells system.
(§2) CLDN6-expressing cells were used in FACS assays to determine the CLDN6 antibody's ability to bind to CLDN6 on the surface of cells and to cross-react with other CLDN family members. HEK293 T cells engineered to express human CLDN6 fused to GFP, mouse CLDN6 fused to GFP, CLDN9-GFP, CLDN4-GFP, or CLDN3-GFP, or GFP alone (without CLDN6) were used as artificial models of CLDN6 expression.
(§3) For each type of cell tested and for each mAb, cells were detached from the surface of the culture flasks by EDTA (instead of trypsin) in order to protect the cell surface proteins. The detached cells were then incubated with Alexa Fluor®-labeled CLDN6 mAbs for 30 min in the dark on ice at a pre-determined concentration. […] After washing, the cells were read by a BD Accuri™ Flow Cytometer C6 to detect antibody-antigen protein binding in channel FL4H. Each antibody was tested at varied concentrations to establish a dose-fluorescence curve. […] Cross-reactivity data were obtained using a similar methodology, but with cells having a different expression profile for CLDN6, CLDN3, CLDN4 and CLDN9.

[4] = molecular target: human Claudin-6 (CLDN6) (human) (UniProt P56747); assay: FACS titration of labelled mAb on ARK2 cells (endogenous CLDN6+)
[5] = molecular target: T2, mouse Claudin-6 (CLDN6); assay: FACS titration of labelled mAb on HEK293T mouse CLDN6-mGFP cells
Description: as §1, §2, §3

[6] = molecular target: CLDN3/4 (endogenous on LS513 or MCF7 cells); assay: FACS titration of labelled mAb on LS513 cells (endogenous CLDN3/4+)
[7] = molecular target: T3, Claudin-9 (CLDN9); assay: FACS titration of labelled mAb on HEK293T CLDN9-mGFP cells
Description: as §1, §2, §3

[8] = molecular target: human Claudin-6 (CLDN6) (human) (UniProt P56747); assay: FACS titration of labelled mAb on OVCA429 cells (endogenous CLDN6+)

Row | Binder | EC50 [1] | EC50 [2] | EC50 [3] | EC50 [4] | EC50 [5] | EC50 [6] | EC50 [7] | EC50 [8]
1 | AB6 (antibody, V domains shown, full-length IgG (ExpiCHO)) VH: DVQLQESGPGLVKSSQSLSLTCSVTGYSITSGYYWKWIRQFPGNKLEWMGYISYDGGINYNPSLKNRISITRDTSKNQFFLKLNSVTTEDTAKYYCARFGKGAMDYWGQGTSVTVSS VL: AIVMFQSPSSLVVSAGEKVTMSCKSSQSLLNSRTRKNYLAWYQQKPGQSPKLLIYWASTRESGVPDRFTGSGSGTDFTLTISSVQAEDLAVYYCKQSYYLYTFGGGTKLEIK | 1.14 µM | 1430 nM | 26 nM | 765 nM | 2220 nM | 133 nM | 2770 nM | 394 nM
2 | AB15 (antibody, V domains shown, full-length IgG (ExpiCHO)) VH: DVQLVESGGGLVQPRGSRKLSCAASGFTFSSFGMHWVRQAPEKGLEWVAYISSDSRTIYYADTVKGRFTISRDNPTNTLFLQMTSLRSEDTAMYYCARDYGRTYEAYWGQGTLVTVSA VL: NIMMTQSPSSLAVSAGEKVTMSCKSSQSVLFSSNQKNYLAWYQQKPGQSPRLLIYWASTRESGVPDRFTGSGSGTDFTLTISNVQAEDLAVYYCHQYLSSRTFGAGTKLELK | 5 µM | 5000 nM | ≥ 5000 nM | 5000 nM | ≥ 5000 nM | 5000 nM | – | 5000 nM
3 | AB10 (antibody, V domains shown, full-length IgG (ExpiCHO)) VH: QIQLVQSGPALKKPGETVKISCKASGYTFTDYSMHWIKQAPGKGLKWMGWISTETGEPTYADGFKGRFDFSLETSADTAYLSINNLTNEDTATYFCTRGLWSSFAYWGQGTLVTVSA VL: DVVMTQTPLSLPVSLGDQASISCRASQSLVHSNGNTYLHWFLQKPGQSPKLLIYKVSNRFSGVPDRFSGSGSRTDFTLKISRVEAEDLGVYFCSQITHVPYTFGGGTKLEIK | 5 µM | 2760 nM | – | 2140 nM | – | 1950 nM | 246 nM | 2470 nM
4 | AB2 (antibody, V domains shown, full-length IgG (ExpiCHO)) VH: EVKLEESGGGLVQPGGSMKLSCVASGFTFSDYWMNWVRQSPEKGLEWVAQIRLKSDNYATHYAESVKGRFTISRDDSKRSVYLQMNNLRAEDTGTYYCNDGPPSGCWGQGTTLIVSS VL: DIQMTQSPASLSASVGETVTITCRISENIYSYLAWYQQKQGKSPQLLVYNAKILVEGVPSRFSGSGSGTQFSLKINSLQPEDFGNYYCQHHYTVPWTFGGGTKLEIK | 5 µM | 182 nM | – | 1360 nM | ≥ 5000 nM | 5000 nM | – | 912 nM
5 | AB3 (antibody, V domains shown, full-length IgG (ExpiCHO)) VH: EVKLEESGGGLVQPGGSMKLSCVASGFTFSNYWMNWVRQSPEKGLEWVAQIRLKSDNYATHYAESVKGRFTISRDDSKRSVYLQMNNLRAEDTGTYYCNDGPPSGCWGQGTTLIVSS VL: DIQMTQSPASLSASVGETVTITCRISENIYSYLAWYQQKQGKSPQLLVYNAKILVEGVPSRFSGSGSGTQFSLKINSLQPEDFGNYYCQHHYTVPWTFGGGTKLEIK | 5 µM | 604 nM | – | 1650 nM | 2490 nM | 5000 nM | – | 1100 nM
6 | AB5 (antibody, V domains shown, full-length IgG (ExpiCHO)) VH: EVQLQQSGPELVKPGASVKMSCKASGYIFTHYIMHWVKQKPGQGLEWIGCINPYNDGTKYNEKFKGKATLTSDKSSSTAYMELSSLTSEDSAVYYCARYYGYPYYSMDYWGQGTSVTVSS VL: DVLMTQTPLSLPVSLGDQPSISCRSSQSIVHSNGNTYLDWYLQKPGQSPKLLIYKVSNRFSGVPDRFSGSGSGTDFTLKISRVEAEDLGVYYCFQGSHVPFTFGSGTRLEIK | 1.49 µM | 10 nM | – | 8 nM | 11 nM | 781 nM | 25 nM | 5 nM
7 | AB12 (antibody, V domains shown, full-length IgG (ExpiCHO)) VH: EVKLMESGGDLVKPGGSLKLSCAASGFTFSSYAMSWVRQTPEKRLEWVASIRSGGTTYYPDSVKGRFTISRDNARNILYLRMSSLRSEDTAIYYCAKVGGNPYPMDYWGQGTSVTVSS VL: DIQMIQSPSSMFASLGDRVSLSCRASQDIGGNLDWYQQKPGGTIKLLIYSTSNLNSGVPSRFSGSGSGSDYSLTITSLESEDFADYYCLQRNAYPLTFGAGTKLELK | 5 µM | 5000 nM | 2090 nM | 1300 nM | – | 2270 nM | 2470 nM | 2290 nM
8 | AB1 (antibody, V domains shown, full-length IgG (ExpiCHO)) VH: QVQLQQSAAELARPGASVKMSCKASGYTFTTYTMHWVKQRPGQGLEWIGFINPSSGYTDYNQKFKDRTTLTADKSSSTVYMQLSSLTSEDSAVYYCANGDYYVAYWGQGTLVTVSA VL: QIVLTQSPAIMSASLGERVTMTCTASSSVSSTYFHWYQQKPGSSPKLWIYSTSNLASGVPRRFSGSASGTSYSLTISSMEAEDAATYYCHQYHRSPLTFGAGTKLELK | 5 µM | 109 nM | – | 105 nM | 72 nM | 5000 nM | 2760 nM | 84 nM

Now those with a lower EC50 [1], led by results:

Row | EC50 [1] | EC50 [2] | EC50 [3] | EC50 [4] | EC50 [5] | EC50 [6] | EC50 [7] | EC50 [8] | Binder
9 | 0.427 µM | 1700 nM | 2240 nM | 363 nM | 2380 nM | 493 nM | – | 835 nM | AB11 (antibody, V domains shown, full-length IgG (ExpiCHO)) VH: DVQLVESGGGLVQPRGSRKLSCAASGFTFSSFGMHWVRQAPEKGLEWVAYISSDSRTIYYADTVKGRFTISRDNPTNTLFLQMTSLRSEDTAMYYCARDYGRTYEAYWGQGTLVTVSA VL: DIVLTQSPASLAVSLGQRATISCRASKSVSTSGYSYIHWYQQKPGQPPKLLIYLASNLESGVPARFSGSGSGTDFTLNIHPVEEEDAATYYCQHSRELPLTFGAGTKLELK
10 | 0.653 µM | 17 nM | – | 48 nM | ≥ 5000 nM | 730 nM | 1860 nM | 168 nM | AB4 (antibody, V domains shown, full-length IgG (ExpiCHO)) VH: QVQLQQSGAELARPGASVKMSCKASGYTFTSYTMHWIKQRPGQGQEWIGYINPSSTYTHYIKKFKDKATLTADKSSSTAYMQLRSLTSEDSAVYYCSRGELGGFAYWGQGTLVTVSA VL: DVVMTQTPLSLPVSLGDQASISCRSSQSLVHSDGNTYLNWYLQKPGQSPKLLIYKVSNRFSGVPDRFSGSGSGTDFTLKIRRVEAEDLGVYFCSQSTHVPYTFGGGTKLEIK
11 | 1.06 µM | 1920 nM | ≥ 5000 nM | 1140 nM | ≥ 5000 nM | 1130 nM | 2770 nM | 1090 nM | AB8 (antibody, V domains shown, full-length IgG (ExpiCHO)) VH: QVQLQQSGAELARPGASVKMSCKASGYTFTTYTMHWLKQRPGQGLEWIGYINPRSGYSNYNQKFKDKATLTADKSSNTAYMQLNTLTSEDSKVYYCSRGELGGFAYWGQGTLVTVSA VL: DVVMTQTPLSLPVSLGDQASISCRSSQSLVHSDGNTYLYWYLQKPGQSPKLLIYKVSNRFSGVPDRFSGSGSGTDFTLKISRVEAEDLGVYFCSQSTHVPYTFGGGTKLEIK
12 | 0.979 µM | 579 nM | 2090 nM | 353 nM | 1550 nM | 635 nM | 1940 nM | 531 nM | AB7 (antibody, V domains shown, full-length IgG (ExpiCHO)) VH: EVQLQQSGPELVKPGASMKISCKASGYSFTGYTMNWVKQSHGKNLEWIGLINPYNGGTNYNQKFKGKATLTVDKSSSTAYMELLSLTSEDSAVYYCARGVYDYDGFTYWGQGTLVTVSA VL: QIVLTQSPAIMSASLGDRVTMTCTASSSVSSSYLHWYQQKPGSSPKLWIYSTSNLASGVPARFSGSGSGTSYSLTISSMEAEDAATYYCHQYHRSPPTFGSGTKLEIK

From US20230049752A1 (University of California, published 2023)
